The text below walks through data of patent US20120040900A1 (BRIGHAM AND WOMEN S HOSPITAL, published 2012).

The labels stand for the following.
B1: EE1234L (peptide)
coil peptide: LEIEAAFLEQENTALETEVAELEQEVQRLENIVSQYETRYGPLGGGK
notes: also called EE1234L (pI=3.7); acidic coil peptide
B2: RR1234L (peptide)
coil peptide: KGGGLEIRAAFLRRRNTALRTRVAELRQRVQRLRNIVSQYETRYGPL
notes: also called RR1234L (pI=12.4); basic coil peptide

Series [1] in a line: homodimer, circular dichroism thermal denaturation; unit inferred.
The series “RR1234L” has as its target B2. The experiment in a line: heterodimer, circular dichroism thermal denaturation; unit inferred.
Series [2] concerns the molecule itself. The series is described as follows: homodimer, circular dichroism thermal denaturation; unit not given. In general terms: Circular dichroism is the unequal absorption of left and right circularly polarised light.

In general, Tm refers to the temperature at the midpoint of the melting transition. Regarding B1, the Tm in series [1] came to 28 °C. For the same protein, the Tm in the series with RR1234L was above 90 °C. In series [2], this protein showed a ΔG of -6.2 and a ΔH of -45.
As to B2, the Tm in series [1] turned out to be 44 °C. For the same protein, in series [2], the ΔG is -9.4 and the ΔH was -66.
